From US20050222402A1, “Dna encoding rat bombesin receptor subtype-3 (brs-3) and uses thereof” (priority 2001, published 2005)
Numbering of substitutions follows the chain as printed. No end group written: not given here.

Key:
rat BRS-3 [1] = target: T1, rat BRS-3 (Rattus norvegicus, UniProt Q8K418); experiment: Phosphatidylinositol hydrolysis functional assay; format: cell-based; conditions: peptide at 10 uM, transfected 293EBNA cells
T1 construct: utilized to PCR amplify full-length rat BRS-3 cDNA; expressed in transfected cells; host or cells: 293EBNA cells, pE3 expression vector
T1 sequence (Q8K418 1-399): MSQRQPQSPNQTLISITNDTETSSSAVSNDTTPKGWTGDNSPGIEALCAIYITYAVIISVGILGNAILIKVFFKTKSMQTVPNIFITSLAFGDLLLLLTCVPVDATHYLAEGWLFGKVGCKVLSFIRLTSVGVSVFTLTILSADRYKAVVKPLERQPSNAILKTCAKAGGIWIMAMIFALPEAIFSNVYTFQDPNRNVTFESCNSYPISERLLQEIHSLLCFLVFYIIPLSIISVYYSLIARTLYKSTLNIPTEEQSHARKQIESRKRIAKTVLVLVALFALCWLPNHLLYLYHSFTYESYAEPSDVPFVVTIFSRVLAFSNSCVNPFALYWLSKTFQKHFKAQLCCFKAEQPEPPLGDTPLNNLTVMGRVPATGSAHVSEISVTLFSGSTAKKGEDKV
Experimental: (§1) Wild type and mutant BRS-3 constructs were transfected by using lipofectamine reagents (Life Technologies, Rockville, Md.) into 293EBNA cells (Invitrogen, Carlsbad, Calif.) which support episomal replication of plasmid containing Epstein Bar virus OriP segment. Stable cell lines were obtained by selection with 250 ug/ml hygromycin. The cells were maintained as monolayers in Dulbecco's modified Eagle's medium (Life Technologies, Rockville, Md.) supplemented with 10% fetal bovine serum and incubated at 37° C. in a humidified 5% CO2 incubator.
The functional properties of rat BRS-3 were characterized in transfected 293EBNA cells. The transfected 293EBNA cells were plated onto poly-D-lysine coated 12-well plates and incubated in the medium containing 2 uCi/ml [^3H]myo-inositol. The cells were labeled for 48 hrs, and subsequently incubated for 30 minutes in Hank's balanced salt solution containing 10 mM HEPES, 0.1% BSA and 10 mM LiCl.
Since a natural agonist of BRS-3 has not been found, members of the bombesin-like peptide family, including GRP, NMB, bombesin and dYB, were used to stimulate the transfected cells described above, in the same buffer, for 1 hr at 37° C. The reaction was stopped by removal of medium and addition of 10 mM formic acid. The inositol monophosphate fraction was then isolated by anion chromatography as described (Berridge et al. Biochem. J. 212: 473-482 (1983), which is hereby incorporated by reference).

rat BRS-3 [2] = target: T1, rat BRS-3; experiment: Calcium mobilization assay (FLIPR), transfected 293EBNA cells; format: cell-based
Experimental: as §1
The functional activity of rat BRS-3 was also studied by measuring the agonist-induced calcium mobilization response using a Fluorescence Imaging Plate Reader (Molecular Devices, Sunnyvale, Calif.). Transfected 293EBNA cells were plated onto poly-D-lysine coated 96-well plates with black wall and clear bottom (Becton Dickinson, Franklin Lakes, N.J.). After 16-48 hr culture, the cells were loaded with 4 uM Fluo-3-AM fluorescent calcium-indicator dye (Molecular Probes, Eugene, OR) in assay buffer (Hank's balanced salts solution, 10 mM HEPES, pH7.4, 0.1% bovine serum albumin, 2.5 mM probenecid).
The changes in intracellular calcium concentration, as indicated by Fluo-3 fluorescence, were immediately measured by FLIPR. Maximal changes in fluorescence over base line were used to determine agonist response.
The EC50 values were mean±S.E. calculated from dose-response curves of 3-5 repeated experiments using FLIPR assays.

RBB3-E3 = target: T2, RBB3-E3 (Rattus norvegicus, UniProt Q8K418, A302V/D306A/E299Q/E303D/P308H/S300T/V307M/V310I/V311F/Y298S); experiment: Radioligand binding assay with 125I-dYB; design: species or system rat/human; conditions: competition with [125I]dYB
T2 construct: expressed in transfected cells; host or cells: 293EBNA cells, pE3 expression vector
T2 sequence (Q8K418 1-399 Y298S/E299Q/S300T/A302V/E303D/D306A/V307M/P308H/V310I/V311F): T1 sequence (Q8K418 1-399) with Y298S, E299Q, S300T, A302V, E303D, D306A, V307M, P308H, V310I, V311F
Experimental: After removal of cell nuclei by a low speed centrifugation (1000×g) step, the cell membrane proteins were collected by centrifugation at 35,000×g for 20 minutes. The membrane protein concentration was determined by the Bradford method using BSA as standard.
After a 2 hr incubation at room temperature, the binding reaction was terminated by filtering through a GF/c filter-mate and washing the filter with binding buffer using Packard 96-well Topcount Harvester. The amount of radioligand bound to the receptor was determined by measurement of the radioactivity on the filter through liquid scintillation counting. The non-specific binding was defined as the binding in the presence of 1 uM unlabeled dYB.

RB3-AMH (rat) = RB3-AMH (rat) (UniProt Q8K418); experiment: cell-based or functional assay
RB3-IF (rat) = RB3-IF (rat) (UniProt Q8K418); experiment: cell-based or functional assay
RB3-SQT (rat) = RB3-SQT (rat) (UniProt Q8K418); experiment: cell-based or functional assay
RB3-VD (rat) = RB3-VD (rat) (UniProt Q8K418); experiment: cell-based or functional assay
RBB3-E3 (rat; human) = RBB3-E3 (rat; human) (UniProt Q8K418); experiment: cell-based or functional assay
[3] = target: human bombesin receptor subtype-3 (human) (UniProt P32247); experiment: cell-based or functional assay
[4] = target: rat bombesin receptor subtype-3 (rat) (UniProt Q8K418); experiment: cell-based or functional assay
[5] = target: rat bombesin receptor subtype-3 (rat) (UniProt Q8K418); experiment: summary statement in the description; assay not named

Chain of human bombesin receptor subtype-3 (human) (P32247 whole entry): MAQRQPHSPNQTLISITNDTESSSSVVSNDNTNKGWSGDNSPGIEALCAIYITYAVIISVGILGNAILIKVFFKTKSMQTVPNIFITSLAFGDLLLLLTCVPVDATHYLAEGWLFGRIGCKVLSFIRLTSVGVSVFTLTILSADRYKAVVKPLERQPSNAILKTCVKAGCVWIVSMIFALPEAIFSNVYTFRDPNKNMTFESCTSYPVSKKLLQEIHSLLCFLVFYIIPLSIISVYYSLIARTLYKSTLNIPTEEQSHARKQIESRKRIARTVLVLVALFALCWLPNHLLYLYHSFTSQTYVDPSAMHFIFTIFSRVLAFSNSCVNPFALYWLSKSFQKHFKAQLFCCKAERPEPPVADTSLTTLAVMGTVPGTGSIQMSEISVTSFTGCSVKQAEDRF

For neuromedin B [NMB], the “stimulation of phosphatidylinositol (PI) hydrolysis (inositol monophosphate production)” value (rat BRS-3 [1]) was “significant increase”, the intracellular calcium response (rat BRS-3 [2]; concentrations below 1.0 uM) was “none of the four peptides could stimulate a significant calcium response” and the intracellular calcium response (rat BRS-3 [2]; peptide at 10 uM) was “transient increase in intracellular calcium concentration”. For the same substance, the binding affinity (RBB3-E3) was “uM low affinities”.

“[D-Tyr6-betaAla11-Phe13-Nle14] bombesin (6-14) (peptide)” was tested, and the EC50, calcium mobilization (FLIPR) (RB3-AMH (rat)) was 370 nM, the fold improvement of dYB potency against rat BRS-3, calcium mobilization (RB3-AMH (rat)) was 6 fold and the EC50, calcium mobilization (FLIPR) (RB3-IF (rat)) was 1300 nM. The EC50, calcium mobilization (FLIPR) (RB3-SQT (rat)) was 390 nM, the fold improvement of dYB potency against rat BRS-3, calcium mobilization (RB3-SQT (rat)) was 5 fold and the EC50, calcium mobilization (FLIPR) (RB3-VD (rat)) was 930 nM. It also gave an EC50, calcium mobilization (FLIPR) (RBB3-E3 (rat; human)) of 2.8 nM, an EC50, calcium mobilization (FLIPR) [3] of 1.2 nM and an EC50, calcium mobilization (FLIPR) [4] of 2200 nM. It also gave a fold difference in dYB potency between human and rodent BRS-3 [4] of 1000 fold, a phosphatidylinositol (PI) hydrolysis, inositol monophosphate production, peptide at 10 uM [4] of 9 fold and a fold lower affinity than human BRS-3 [5] of 1000 fold.

For “gastrin-releasing peptide (VPLPAGGGTVLTKMYPRGNHWAVGHLM; ends and bridges not checked; UniProt P07492 24-50, looked up) [GRP, bombesin-like peptide found in mammals]”, the “stimulation of phosphatidylinositol (PI) hydrolysis (inositol monophosphate production)” value (rat BRS-3 [1]) was “significant increase”, the intracellular calcium response (rat BRS-3 [2]; concentrations below 1.0 uM) was “none of the four peptides could stimulate a significant calcium response” and the intracellular calcium response (rat BRS-3 [2]; peptide at 10 uM) was “transient increase in intracellular calcium concentration”. The binding affinity (RBB3-E3) was “uM low affinities”.

With phyllolitorin the binding affinity (RBB3-E3) was “uM low affinities”.
